Assay [1] deals with human heparin-binding epidermal growth factor, recombinant heparin-binding and EGF domains (human, UniProt Q99075 63-148). Nature of the assay: SEC; Superdex 75 10/300 GL, 25 mM Tris.HCl pH 8.0; 150 mM NaCl, flow rate 0.8 mL/min; oligomeric state read from the elution volume. As to conditions: both partners purified.
Assay [2] has as its target human amphiregulin, recombinant heparin-binding and EGF domains (human, UniProt P15514 101-198). The assay is described as above. As to conditions: both partners purified.

Data on two molecules can be found in paper PMC8943033, “A toolkit for recombinant production of seven human EGF family growth factors in active conformation” (Scientific Reports, 2022).

B1: human heparin-binding epidermal growth factor, recombinant heparin-binding and EGF domains (ligand)
chain: DLQEADLDLLRVTLSSKPQALATPNKEEHGKRKKKGKGLGKKRDPCLRKYKDFCIHGECKYVKELRAPSCICHPGYHGERCHGLSL
modifications: three disulfides (C1-C3, C2-C4, C5-C6); SEC suggests a dimer; N-terminal pET32a linker remnant omitted / three disulfides (C1-C3, C2-C4, C5-C6); SEC suggests a dimer; N-terminal pET32a linker remnant
For the molecule B1, the stoichiometry N – broadly, the number of molecules, sites or subunits per partner or assembly – in assay [1] was 2.

B2: human amphiregulin, recombinant heparin-binding and EGF domains (ligand)
chain: SVRVEQVVKPPQNKTESENTSDKPKRKKKGGKNGKNRRNRKKKNPCNAEFQNFCIHGECKYIEHLEAVTCKCQQEYFGERCGEKSMKTHSMIDSSLSK
modifications: three disulfides (C1-C3, C2-C4, C5-C6); SEC suggests a dimer; N-terminal pET32a linker remnant omitted / three disulfides (C1-C3, C2-C4, C5-C6); SEC suggests a dimer; N-terminal pET32a linker remnant
Regarding B2, the “stoichiometry N” value in assay [2] is 2.
